Experimental findings from IntAct's records for PubMed 16311606 are described below.

B1: Polycystin-2 (Homo sapiens), Q13563 (parent)
chain: MVNSSRVQPQQPGDAKRPPAPRAPDPGRLMAGCAAVGASLAAPGGLCEQRGLEIEMQRIRQAAARDPPAGAAASPSPPLSSCSRQAWSRDNPGFEAEEEEEEVEGEEGGMVVEMDVEWRPGSRRSAASSAVSSVGARSRGLGGYHGAGHPSGRRRRREDQGPPCPSPVGGGDPLHRHLPLEGQPPRVAWAERLVRGLRGLWGTRLMEESSTNREKYLKSVLRELVTYLLFLIVLCILTYGMMSSNVYYYTRMMSQLFLDTPVSKTEKTNFKTLSSMEDFWKFTEGSLLDGLYWKMQPSNQTEADNRSFIFYENLLLGVPRIRQLRVRNGSCSIPQDLRDEIKECYDVYSVSSEDRAPFGPRNGTAWIYTSEKDLNGSSHWGIIATYSGAGYYLDLSRTREETAAQVASLKKNVWLDRGTRATFIDFSVYNANINLFCVVRLLVEFPATGGVIPSWQFQPLKLIRYVTTFDFFLAACEIIFCFFIFYYVVEEILEIRIHKLHYFRSFWNCLDVVIVVLSVVAIGINIYRTSNVEVLLQFLEDQNTFPNFEHLAYWQIQFNNIAAVTVFFVWIKLFKFINFNRTMSQLSTTMSRCAKDLFGFAIMFFIIFLAYAQLAYLVFGTQVDDFSTFQECIFTQFRIILGDINFAEIEEANRVLGPIYFTTFVFFMFFILLNMFLAIINDTYSEVKSDLAQQKAEMELSDLIRKGYHKALVKLKLKKNTVDDISESLRQGGGKLNFDELRQDLKGKGHTDAEIEAIFTKYDQDGDQELTEHEHQQMRDDLEKEREDLDLDHSSLPRPMSSRSFPRSLDDSEEDDDEDSGHSSRRRGSISSGVSYEEFQVLVRRVDRMEHSIGSIVSKIDAVIVKLEIMERAKLKRREVLGRLLDGVAEDERLGRDSEIHREQMERLVREELERWESDDAASQISHGLGTPVGLNGQPRPRSSRPSSSQSTEGMEGAGGNGSSNVHV
partner: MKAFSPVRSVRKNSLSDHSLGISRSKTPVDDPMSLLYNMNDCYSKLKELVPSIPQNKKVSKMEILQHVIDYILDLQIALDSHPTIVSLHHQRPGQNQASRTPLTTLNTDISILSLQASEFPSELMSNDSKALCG

Variants of B1 are the subject of this test. As to conditions: with id2_human ID2, Q02363.
For S812A, the “effect of a mutation on the interaction” value is “disrupting interaction”.
